Measured values published in the RNAGym collection of RNA variant scans (doi:10.1073/pnas.2313332121).
This sample holds only a part of the variants without activity.

B1: TPR 5TU (parent)
chain: GGAUCUUCUCGAUCUAACAAAAAAGACAAAUCUGCCACAAAGCUUGAGAGCAUCUUCGGAUGCAGAGGCGGCAGCCUUCGGUGGCGCGAUAGCGCCAACGUUCUCAACUAUGACACGCAAAACGCGUGCUCCGUUGAAUGGAGUUUAUCAUG

Variants of: B1
Assay: polymerase ribozyme fitness, log enrichment relative to wild type (log ratio); higher = more active; in vitro selection for triplet polymerase activity
In short: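 For each subunit of a heterodimeric triplet polymerase ribozyme, a mutant library was built by PCR and transcribed, then taken through a single in vitro selection round in triplicate. Selection involved annealing to a biotinylated primer, the partner subunit and triplets, incubation frozen at −7 °C, gel excision of extended constructs, capture on streptavidin beads and RT-PCR. Genotypes were retained after Illumina sequencing of inputs and outputs only with ≥10 input reads and ≥1 read in each output. Fitness is defined as the logarithm of a genotype's enrichment relative to wild-type enrichment, using inverse-variance-weighted averages across replicates, with the logarithm taken to base 2.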

Variant	polymerase ribozyme fitness (log ratio)
A60C G83U A121U	-2.35
A24G C96G A137U	≤ -4.2
A39U C79G G84U	≤ -4.2
C5G C57U	-0.358
A20C A29C C87G A122G G140U	≤ -4.2
C36A C57G U77C A119G	≤ -4.2
A30U C76A	-3.82
A16G A73U G94U	-2.22
A12U A28C C57U G68A G92C G126U	≤ -4.2
A30U G94A	-3.7
U55A C87U	-1.1
A28U A29G A30U U61A G80C C93A A113U G140U G141A	≤ -4.2
C14U A17C C18G A20G G59U C85U A91U C118U G140A	≤ -4.2
A52C U55A G59U	0.0736
U33G U56C G81C C95U	-3.74
C5G U45G U55G G86U C87A A91U	≤ -4.2
A19U A30C C95G	≤ -4.2
A19U A21C	-0.908
C36U G42A C76U G143A	≤ -4.2
C5A U56A G58A C72U C87U U109G G136A U144C	-3.93
A24U C85U	-0.914

Variant	polymerase ribozyme fitness (log ratio)
A17G A19U U53A U56G A60U C69G U111G A142G	≤ -4.2
A49C C93A C103G G117U C149G	≤ -4.2
A3G U15A U90C G94U G124A C125U	≤ -4.2
C76U G88U	≤ -4.2
A20U C32U U56A A142U	-3.91
U4C U7G C27U U31A G68U G88U	≤ -4.2
U13G A28G U53A A64U G141U U145G G152A	≤ -4.2
A29U U77A G80A G92A U148C	≤ -4.2
A24C A64C	≤ -4.2
G81U C96U A150C	-3.33
A37U C54A C57A C93U	-3.28
G50C U53A C57G A73G C93A C95A U101G A107G A138C U144C	≤ -4.2
G42U U44G A60G G71A G86A A106U U134G U135C	≤ -4.2
G71C A119G	-3.01
C8A G58C U82A A98G G136U	≤ -4.2
C18G G83A U145G U151G	≤ -4.2
A52C A91U U148A	≤ -4.2
U55G C57G A97G A106C	-3
A20C A22U C51U	-0.386
C27U U55A G70C A91U A97U A106G	≤ -4.2
C54U G58C	-0.858

Variant	polymerase ribozyme fitness (log ratio)
C85U U127C	-2.51
U45A A47C U61A G92A C114A C123G U146G	≤ -4.2
C54U G74C	-3.95
C63U C85G U127A U139A U145C	≤ -4.2
A12U C38U G83U	-0.788
A49G C54A C118A	-3.25
C38U G83U C149G A150C	≤ -4.2
A21G C36G A47C A120C G133A	≤ -4.2
U4A U6A A28U A30G U44A G59C A60G C87U A89U A97C A107U	≤ -4.2
C51A A52C A73G G83U U127C	≤ -4.2
A52U A73G U102C	≤ -4.2
A28C C51U C57A A73U C87G U101G A121U	≤ -4.2
A29G C35G U56G G68A G81A C99A C114A G143C	≤ -4.2
C85U C105U A106C U135C G141A	-3.94
A19U C69G C85U U134G G152U	≤ -4.2
A21U U55G G70A C93A	≤ -4.2
C32A G74C G81C G94A A121U	-4.03
U56A C118U C123G U144C	-0.722
C54U A107U U111G U135A U146C	-4
G42A G50C U55A G84A G143U	≤ -4.2
C14U G50C	-3.52

Variant	polymerase ribozyme fitness (log ratio)
G59C G86C C118A	-2.85
A17C U55A U56A C85G A115G	-3.1
C54G A64G A106U A107C U148A	≤ -4.2
U45A C57A C96U G124A	-3.11
C85A C96A	-2.22
U90C G92A C123A G126A A147C	≤ -4.2
U56C C87U A89G U101G	-2.81
C8G A30G G48A C69G G86A G143U	-4.06
G50C U134C	-2.51
G74C C105U A107G	≤ -4.2
A29G U33C G141A U145A	≤ -4.2
G25U C69G U146A	-4.05
A12G A40C A41G U56A U82G C99A A113C C125U	≤ -4.2
U56A C85A	-2.02
U13G G81U G86A C105U	-3.74
A17G C18A C69G U101G C105U A120U A142U	-1.71
C72G G83U G124U G128U G133A U148A	≤ -4.2
U6G C10G C87G	≤ -4.2
G59U U139C	-3.8
G70A C76A C79G A91U	≤ -4.2
G48C U55A	-0.498
